# Experimental data as given in publication doi:10.1101/2021.01.10.425899 (bioRxiv, 2021).
# Target: the molecule itself
# Assay: SEC-MALS
protein,measurement,value
"Exo-β-N-acetylmuramidase NamZ of Bacillus subtilis 168, recombinant, C-terminal His6-tag fusion protein (enzyme) SPDSKNQTAKKPKVQTGIDTLLPDYKKQLKGKRIGLITNPAGVNTSLKSSVDILYENPDIKLTALFGPEHGVRGDAQAGDEVGSYIDEKTGVPVYSLYGKTKKPTPEMLKNVDILMFDIQDVGTRFYTYIYTMAYAMEAAKENGIPFMVLDRPNPQGGNHIEGPILEPEYASFVGLYPIPLKHGMTIGELASLFNKEFSIDADLTVVKMKHWKRKMDFDDTRLPFVLPSPNMPTVESTFVYPATGLIEGTNISEGRGTTKPFELIGAPFIKSTELEETLNSLHLPGVTFRAASFTPTFSKHQGTLCHGVQLYVTDRDKFEAVKTGLSVIKTIHDLYPEDFEFLSTGSFDKLAGNGWIRTKIENGTSVENIINSYEKTLQQFSKTRKKYLIY",stoichiometry N,2
